According to US11213590B2, “SSTR-targeted conjugates and particles and formulations thereof” (priority 2016, dated 2022):

How the values were obtained:
[1] = Pharmacokinetics in patients; type: in vivo; conditions: human, venous blood, intravenous; in a patient
Description: For C1D1 and C3D1, venous blood samples (4-6 ml) for determination of Conjugate 57, the somatostatin analog peptide component of Conjugate 57 (BT-979), and DM1 (total, unconjugated, and free sulfhydryl) are taken before the start of the infusion, at 0.5 hours (±1 minute) after the start of study drug infusion; precisely at the end of infusion; and 1.5 hours (±5 minutes), 2 hours (±5 minutes), 4 hours (±5 minutes), 6 hours (±5 minutes), 8 hours (±5 minutes), and 10 hours (±5 minutes) after the start of study drug infusion. If the 10 hour time point requires an inpatient admission at the center, the 10 hour time point is not collected. The date and time of collection of each sample are recorded.

SSTR5 = SSTR5 (Homo sapiens, UniProt P35346); experiment: Affinity profile (half-maximal inhibitory concentration), SSTR5; type: binding
SSTR5, sequence (P35346 whole entry): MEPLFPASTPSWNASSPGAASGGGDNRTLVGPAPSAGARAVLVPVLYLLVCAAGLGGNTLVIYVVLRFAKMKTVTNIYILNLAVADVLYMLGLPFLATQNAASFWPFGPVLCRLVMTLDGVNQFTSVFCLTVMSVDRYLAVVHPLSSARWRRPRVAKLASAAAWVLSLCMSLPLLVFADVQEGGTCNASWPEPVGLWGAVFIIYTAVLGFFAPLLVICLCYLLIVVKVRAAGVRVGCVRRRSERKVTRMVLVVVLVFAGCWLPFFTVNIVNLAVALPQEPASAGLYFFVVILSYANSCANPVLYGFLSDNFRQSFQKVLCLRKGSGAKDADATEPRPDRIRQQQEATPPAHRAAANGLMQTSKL
Text: DOTATE, also known as DOTA-TATE or DOTA-octreotate, comprises an amide of the acid DOTA, which connects a radionuclide and (Tyr3)-octreotate, a derivative of octreotide. DOTATOC, also known as edotreotide, SMT487, or (DOTA^0-Phe^1-Tyr^3)octreotide, is also an octreotide derivative which can be bound to radionuclides for diagnosis and treatment.

[2] = Buffer screening for solution stability; type: physicochemical; conditions: acetate buffer versus citrate and phosphate buffers; pH range of 4.0 to 4.8
Text: Conjugate 57 is a free flowing powder. The formulation development of Conjugate 57 was accomplished by screening conditions that would provide stability and tonicity to the drug product solution. […] The buffer is formed by a combination of sodium acetate and acetic acid. In summary, acetate buffer, a commonly used parenteral buffer, is used to dissolve Conjugate 57 and ensure stability at a pH range of 4.0 to 4.8.

[3] = In vivo cardiovascular and respiratory evaluation; parameters: species or system beagle dog
Description: This study was conducted to evaluate the potential cardiovascular and respiratory effects of Conjugate 57 in conscious freely moving naïve male beagle dogs.
Assessments of cardiovascular and respiratory effects and general toxicity were based on mortality, clinical observations, body weight, body temperature, cardiovascular evaluations, i.e., blood pressure (systolic, diastolic, and mean arterial pressures), heart rate, the ECG (QRS duration and the RR, PR, QT, and Corrected QT [QTc] intervals), and respiratory evaluations (respiratory rate, tidal volume, and minute volume). The animals were monitored continuously for at least 2 hours prior to dosing and for 24 hours post dose.

[4] = 0.16 mg/kg iv, segment 1 (>0 to 0.25 hours post dose)
[5] = 0.16 mg/kg iv, segment 2 (>0.25 to 6 hours post dose)
[6] = 0.16 mg/kg iv, segment 3 (>6 to 24 hours post dose)
[7] = 0.20 mg/kg iv, segment 1 (>0 to 0.25 hours post dose)
[8] = 0.20 mg/kg iv, segment 2 (>0.25 to 6 hours post dose)
[9] = 0.20 mg/kg iv, segment 3 (>6 to 24 hours post dose)
[10] = 0.24 mg/kg iv, segment 1 (>0 to 0.25 hours post dose)
[11] = 0.24 mg/kg iv, segment 2 (>0.25 to 6 hours post dose)
[12] = 0.24 mg/kg iv, segment 3 (>6 to 24 hours post dose)

Structure (SMILES): COc1cc2cc(c1Cl)N(C)C(=O)C[C@H](OC(=O)[C@H](C)N(C)C(=O)CCSSC[C@H](NC(=O)[C@@H]1CSSC[C@H](NC(=O)[C@H](N)Cc3ccccc3)C(=O)N[C@@H](Cc3ccc(O)cc3)C(=O)N[C@H](Cc3c[nH]c4ccccc34)C(=O)N[C@@H](CCCCN)C(=O)N[C@@H]([C@@H](C)O)C(=O)N1)C(N)=O)[C@]1(C)O[C@H]1[C@H](C)[C@@H]1C[C@@](O)(NC(=O)O1)[C@H](OC)/C=C/C=C(\C)C2 [Conjugate 57]
- half-life [1]: ~108 min
- IC50 (SSTR5): 24 nM
- solution stability by buffer [2]: most stability
- Diastolic Blood Pressure, overall segment mean [3, 4]: 100.8 ± 4.1
- Mean Arterial Blood Pressure, overall segment mean [3, 4]: 124.0 ± 4.8
- Systolic Blood Pressure, overall segment mean [3, 4]: 162.8 ± 5.7
- Diastolic Blood Pressure, overall segment mean [3, 5]: 102.7 ± 1.5
- Mean Arterial Blood Pressure, overall segment mean [3, 5]: 128.6 ± 2.0
- Systolic Blood Pressure, overall segment mean [3, 5]: 172.2 ± 2.9
- Diastolic Blood Pressure, overall segment mean [3, 6]: 99.6 ± 1.9
- Mean Arterial Blood Pressure, overall segment mean [3, 6]: 125.7 ± 2.2
- Systolic Blood Pressure, overall segment mean [3, 6]: 169.2 ± 3.1
- Diastolic Blood Pressure, overall segment mean [3, 7]: 99.8 ± 4.2
- Mean Arterial Blood Pressure, overall segment mean [3, 7]: 122.7 ± 4.9
- Systolic Blood Pressure, overall segment mean [3, 7]: 161.1 ± 5.9
- Diastolic Blood Pressure, overall segment mean [3, 8]: 97.7 ± 1.5
- Mean Arterial Blood Pressure, overall segment mean [3, 8]: 122.6 ± 2.1
- Systolic Blood Pressure, overall segment mean [3, 8]: 165.7 ± 3.0
- Diastolic Blood Pressure, overall segment mean [3, 9]: 93.8 ± 1.9
- Mean Arterial Blood Pressure, overall segment mean [3, 9]: 119.4 ± 2.2
- Systolic Blood Pressure, overall segment mean [3, 9]: 163.4 ± 3.2
- Diastolic Blood Pressure, overall segment mean [3, 10]: 112.0 ± 4.1
- Mean Arterial Blood Pressure, overall segment mean [3, 10]: 138.7 ± 4.8
- Systolic Blood Pressure, overall segment mean [3, 10]: 182.0 ± 5.7
- Diastolic Blood Pressure, overall segment mean [3, 11]: 104.1 ± 1.5
- Mean Arterial Blood Pressure, overall segment mean [3, 11]: 129.8 ± 2.0
- Systolic Blood Pressure, overall segment mean [3, 11]: 176.3 ± 2.9
- Diastolic Blood Pressure, overall segment mean [3, 12]: 97.1 ± 1.9
- Mean Arterial Blood Pressure, overall segment mean [3, 12]: 123.5 ± 2.2
- Systolic Blood Pressure, overall segment mean [3, 12]: 171.1 ± 3.1
- blood pressure, heart rate and respiratory rate ([3]; 0.24 mg/kg, from dosing through 1.5 to 2 hours following dosing): statistically significant increases
- effects on QRS duration, ECG morphology, or tidal volume ([3]; any dose level tested): no test article-related effects
- adverse effects on cardiovascular or respiratory function ([3]; iv, male beagle dogs, doses up to and including 0.24 mg/kg): no adverse effects
- tolerability, clinical observations, mortality ([3]; single iv infusion over 6 minutes, 0.16, 0.20 and 0.24 mg/kg, male beagle dogs): generally well tolerated
